Laboratory results published in patent US20150329626A1 (Eli Lilly, published 2015).
Residue numbers refer to the chain shown, from its start. One block for each binder: values may come before it.

Columns and labels:
[1] = biological target: T1, human VEGFR2 extracellular domain (human, UniProt P35968 20-764); assay: Biacore SPR, 25 C, compound captured on Protein A, VEGFR2-ECD as analyte
T1 construct: also called hVEGFR2-ECD; human VEGFR2-ECD

[2] = biological target: T2, human Ang2 (human, UniProt O15123 19-496); assay: Biacore SPR, 25 C, compound captured on Protein A, Ang2 as analyte
T2 construct: also called hAng2; human angiopoietin-2
T2 sequence: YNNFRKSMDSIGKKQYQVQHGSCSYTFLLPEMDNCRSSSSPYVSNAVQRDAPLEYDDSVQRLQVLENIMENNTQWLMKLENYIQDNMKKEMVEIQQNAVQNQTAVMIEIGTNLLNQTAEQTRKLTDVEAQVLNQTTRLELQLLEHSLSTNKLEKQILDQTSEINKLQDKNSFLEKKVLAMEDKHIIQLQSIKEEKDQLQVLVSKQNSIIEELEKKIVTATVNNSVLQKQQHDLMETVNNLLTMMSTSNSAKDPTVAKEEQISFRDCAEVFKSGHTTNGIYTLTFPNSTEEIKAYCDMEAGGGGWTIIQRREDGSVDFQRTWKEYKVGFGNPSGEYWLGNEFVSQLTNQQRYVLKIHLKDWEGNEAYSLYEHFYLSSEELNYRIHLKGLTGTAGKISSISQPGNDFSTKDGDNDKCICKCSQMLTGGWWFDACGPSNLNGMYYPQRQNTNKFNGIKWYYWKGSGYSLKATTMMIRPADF

[3] = biological target: human VEGFR2 on cells (ECFC, HMVEC-d) (human, UniProt P35968 20-1356); assay: cell-based or functional assay
[4] = biological target: T2, human Ang2; assay: cell-based or functional assay
[5] = biological target: T2, human Ang2; assay: Biacore SPR, 37 C, n = 3, compound captured on Protein A
[6] = biological target: T3, mouse Ang2 (mouse, UniProt O35608 19-496, limits assumed); assay: as above
T3 sequence (looked up): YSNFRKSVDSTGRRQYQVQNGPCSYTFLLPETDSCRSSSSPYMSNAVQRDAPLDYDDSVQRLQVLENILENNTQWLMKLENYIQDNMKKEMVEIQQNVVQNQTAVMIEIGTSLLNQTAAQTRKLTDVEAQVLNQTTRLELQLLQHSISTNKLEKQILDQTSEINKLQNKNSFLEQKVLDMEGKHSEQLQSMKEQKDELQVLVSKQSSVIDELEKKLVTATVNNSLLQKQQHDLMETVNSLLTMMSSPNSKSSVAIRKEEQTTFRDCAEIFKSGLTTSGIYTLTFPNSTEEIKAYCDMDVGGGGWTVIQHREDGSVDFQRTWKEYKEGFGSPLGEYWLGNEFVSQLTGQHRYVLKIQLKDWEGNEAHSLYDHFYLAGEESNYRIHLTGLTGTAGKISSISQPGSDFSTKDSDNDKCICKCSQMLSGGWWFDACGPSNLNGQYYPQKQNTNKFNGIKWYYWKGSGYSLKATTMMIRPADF

[7] = biological target: T4, dog Ang2 (dog, UniProt A0A8J8 19-495, limits assumed); assay: as above
T4 sequence (looked up): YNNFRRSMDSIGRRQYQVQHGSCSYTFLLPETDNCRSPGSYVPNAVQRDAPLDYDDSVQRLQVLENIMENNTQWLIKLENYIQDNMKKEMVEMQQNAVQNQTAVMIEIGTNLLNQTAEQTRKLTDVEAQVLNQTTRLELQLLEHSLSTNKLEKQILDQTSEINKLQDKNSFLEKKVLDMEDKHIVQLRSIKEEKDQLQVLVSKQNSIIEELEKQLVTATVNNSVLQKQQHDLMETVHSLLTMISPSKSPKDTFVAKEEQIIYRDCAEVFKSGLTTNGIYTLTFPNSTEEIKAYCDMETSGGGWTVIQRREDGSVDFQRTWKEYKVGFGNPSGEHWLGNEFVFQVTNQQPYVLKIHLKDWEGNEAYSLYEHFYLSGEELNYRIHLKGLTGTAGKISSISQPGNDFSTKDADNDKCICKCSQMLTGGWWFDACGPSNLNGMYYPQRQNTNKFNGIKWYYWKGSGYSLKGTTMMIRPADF

[8] = biological target: T5, rabbit Ang2 (rabbit, UniProt G1T9B3 19-496); assay: as above
T5 sequence: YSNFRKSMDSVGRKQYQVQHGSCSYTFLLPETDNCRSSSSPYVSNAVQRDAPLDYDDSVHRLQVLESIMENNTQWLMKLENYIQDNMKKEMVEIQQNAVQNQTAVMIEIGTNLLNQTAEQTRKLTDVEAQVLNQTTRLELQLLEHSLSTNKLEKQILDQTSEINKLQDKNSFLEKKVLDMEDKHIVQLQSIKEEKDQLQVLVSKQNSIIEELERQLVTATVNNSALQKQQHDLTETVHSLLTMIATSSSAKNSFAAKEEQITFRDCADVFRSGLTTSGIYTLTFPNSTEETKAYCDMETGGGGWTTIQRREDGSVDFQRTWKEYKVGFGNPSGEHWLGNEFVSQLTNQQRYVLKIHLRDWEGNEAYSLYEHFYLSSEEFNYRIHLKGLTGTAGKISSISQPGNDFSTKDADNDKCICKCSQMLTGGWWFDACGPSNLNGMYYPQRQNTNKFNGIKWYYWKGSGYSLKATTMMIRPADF

[9] = biological target: T6, cyno Ang2 (cynomolgus monkey, UniProt A0A2K5VNX6 19-496); assay: as above
T6 construct: also called cynomolgus monkey Ang2
T6 sequence: T2 sequence with E258G, I279V, F284L, I291V, G410A, A468G, D477G

[10] = biological target: T2, human Ang2; assay: competition ELISA: blocking of biotinylated human Ang2 binding to plate-coated human Tie2-Fc
[11] = biological target: T7, dog VEGFR2 extracellular domain (dog, UniProt Q2XPT7 20-763); assay: Biacore SPR, 37 C, n = 3, compound captured on Protein A, VEGFR2-ECD as analyte
T7 construct: extracellular domain

[12] = biological target: T8, rabbit VEGFR2 extracellular domain (rabbit, UniProt G1SN50 20-764); assay: as above
T8 construct: extracellular domain

[13] = biological target: T9, cyno VEGFR2 extracellular domain (cynomolgus monkey, UniProt A0A2K5VE63 20-764); assay: as above
T9 construct: extracellular domain; also called cynomolgus monkey VEGFR2

[14] = biological target: T1, human VEGFR2 extracellular domain; assay: as above

T8 sequence (G1SN50 entry or part of it): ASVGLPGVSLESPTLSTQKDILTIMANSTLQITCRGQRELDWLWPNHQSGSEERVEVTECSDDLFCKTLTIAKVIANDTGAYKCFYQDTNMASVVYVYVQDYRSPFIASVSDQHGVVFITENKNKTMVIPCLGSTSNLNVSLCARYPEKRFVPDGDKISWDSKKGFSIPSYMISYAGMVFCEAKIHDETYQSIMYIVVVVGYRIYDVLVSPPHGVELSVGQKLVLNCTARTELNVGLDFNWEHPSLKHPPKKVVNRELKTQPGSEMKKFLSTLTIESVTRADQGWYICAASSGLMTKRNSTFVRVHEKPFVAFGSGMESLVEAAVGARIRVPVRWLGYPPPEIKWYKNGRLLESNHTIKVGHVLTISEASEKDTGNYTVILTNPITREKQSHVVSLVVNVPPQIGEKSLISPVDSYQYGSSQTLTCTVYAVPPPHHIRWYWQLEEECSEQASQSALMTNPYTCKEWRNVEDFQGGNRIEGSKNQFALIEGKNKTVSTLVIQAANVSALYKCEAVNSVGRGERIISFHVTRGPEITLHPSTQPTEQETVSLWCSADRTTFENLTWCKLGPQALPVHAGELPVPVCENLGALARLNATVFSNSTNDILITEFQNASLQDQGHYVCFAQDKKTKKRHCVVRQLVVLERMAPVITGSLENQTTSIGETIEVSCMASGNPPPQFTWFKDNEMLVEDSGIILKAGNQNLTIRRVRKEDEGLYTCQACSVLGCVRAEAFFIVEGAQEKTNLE
T1 sequence (P35968 20-764): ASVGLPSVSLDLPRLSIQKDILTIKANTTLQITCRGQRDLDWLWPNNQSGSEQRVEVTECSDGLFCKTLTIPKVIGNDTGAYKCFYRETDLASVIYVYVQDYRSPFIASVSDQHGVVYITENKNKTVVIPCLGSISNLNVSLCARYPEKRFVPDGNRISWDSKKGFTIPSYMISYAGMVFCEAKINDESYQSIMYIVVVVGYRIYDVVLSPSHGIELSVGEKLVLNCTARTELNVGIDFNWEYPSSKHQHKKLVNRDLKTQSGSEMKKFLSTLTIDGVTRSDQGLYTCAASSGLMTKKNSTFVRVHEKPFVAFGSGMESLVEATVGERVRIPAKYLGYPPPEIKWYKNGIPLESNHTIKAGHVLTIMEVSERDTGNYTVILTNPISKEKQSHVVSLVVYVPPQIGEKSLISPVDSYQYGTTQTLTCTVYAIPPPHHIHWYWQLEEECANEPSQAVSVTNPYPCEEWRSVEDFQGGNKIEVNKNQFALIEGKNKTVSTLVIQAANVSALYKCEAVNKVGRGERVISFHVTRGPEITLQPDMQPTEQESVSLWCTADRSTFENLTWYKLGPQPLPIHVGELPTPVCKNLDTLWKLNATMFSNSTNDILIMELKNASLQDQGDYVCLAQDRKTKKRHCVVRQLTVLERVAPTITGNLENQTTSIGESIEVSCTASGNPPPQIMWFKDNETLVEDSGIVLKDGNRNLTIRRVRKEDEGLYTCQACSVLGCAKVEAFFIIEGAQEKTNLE
T9 sequence (A0A2K5VE63 entry or part of it): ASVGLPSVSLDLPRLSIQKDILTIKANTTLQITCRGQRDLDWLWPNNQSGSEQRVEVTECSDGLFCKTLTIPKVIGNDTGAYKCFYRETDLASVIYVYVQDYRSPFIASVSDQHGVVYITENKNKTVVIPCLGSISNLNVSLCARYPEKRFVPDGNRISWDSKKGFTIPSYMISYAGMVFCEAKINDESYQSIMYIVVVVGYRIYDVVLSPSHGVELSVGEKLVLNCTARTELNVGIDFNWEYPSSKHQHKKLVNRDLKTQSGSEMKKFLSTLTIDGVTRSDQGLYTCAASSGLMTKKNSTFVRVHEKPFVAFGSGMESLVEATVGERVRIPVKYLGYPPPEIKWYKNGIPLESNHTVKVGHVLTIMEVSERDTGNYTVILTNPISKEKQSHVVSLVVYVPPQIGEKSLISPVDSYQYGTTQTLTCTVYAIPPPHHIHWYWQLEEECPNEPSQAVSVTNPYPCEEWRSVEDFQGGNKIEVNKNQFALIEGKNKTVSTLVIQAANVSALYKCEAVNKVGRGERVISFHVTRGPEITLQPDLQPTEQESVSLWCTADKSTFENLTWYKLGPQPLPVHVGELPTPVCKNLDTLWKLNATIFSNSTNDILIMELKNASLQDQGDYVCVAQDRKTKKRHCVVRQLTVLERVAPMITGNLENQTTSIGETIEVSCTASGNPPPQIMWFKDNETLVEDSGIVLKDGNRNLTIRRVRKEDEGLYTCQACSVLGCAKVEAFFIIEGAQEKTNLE

Kd [1]: 0.711 nM | koff [1]: 4.8e-05 s⁻¹ | kon [1]: 68000 M⁻¹ s⁻¹ | Kd [2]: < 0.1 nM | koff [2]: < 1e-05 s⁻¹ | kon [2]: 183000 M⁻¹ s⁻¹
B1: Compound A (bispecific antibody, human IgG1, kappa)
heavy: not shown
light: DIQMTQSPSSVSASIGDRVTITCRASQGIDNWLGWYQQKPGKAPKLLIYDASNLDTGVPSRFSGSGSGTYFTLTISSLQAEDFAVYFCQQAKAFPPTFGGGTKVDIKRTVAAPSVFIFPPSDEQLKSGTASVVCLLNNFYPREAKVQWKVDNALQSGNSQESVTEQDSKDSTYSLSSTLTLSKADYEKHKVYACEVTHQGLSSPVTKSFNRGEC

Kd [1]: 0.513 nM | koff [1]: 4.1e-05 s⁻¹ | kon [1]: 81000 M⁻¹ s⁻¹ | Kd [2]: < 0.1 nM | koff [2]: < 1e-05 s⁻¹ | kon [2]: 285000 M⁻¹ s⁻¹
B2: Compound B (bispecific antibody, human IgG4 S228P, kappa, F234A L235A)
heavy: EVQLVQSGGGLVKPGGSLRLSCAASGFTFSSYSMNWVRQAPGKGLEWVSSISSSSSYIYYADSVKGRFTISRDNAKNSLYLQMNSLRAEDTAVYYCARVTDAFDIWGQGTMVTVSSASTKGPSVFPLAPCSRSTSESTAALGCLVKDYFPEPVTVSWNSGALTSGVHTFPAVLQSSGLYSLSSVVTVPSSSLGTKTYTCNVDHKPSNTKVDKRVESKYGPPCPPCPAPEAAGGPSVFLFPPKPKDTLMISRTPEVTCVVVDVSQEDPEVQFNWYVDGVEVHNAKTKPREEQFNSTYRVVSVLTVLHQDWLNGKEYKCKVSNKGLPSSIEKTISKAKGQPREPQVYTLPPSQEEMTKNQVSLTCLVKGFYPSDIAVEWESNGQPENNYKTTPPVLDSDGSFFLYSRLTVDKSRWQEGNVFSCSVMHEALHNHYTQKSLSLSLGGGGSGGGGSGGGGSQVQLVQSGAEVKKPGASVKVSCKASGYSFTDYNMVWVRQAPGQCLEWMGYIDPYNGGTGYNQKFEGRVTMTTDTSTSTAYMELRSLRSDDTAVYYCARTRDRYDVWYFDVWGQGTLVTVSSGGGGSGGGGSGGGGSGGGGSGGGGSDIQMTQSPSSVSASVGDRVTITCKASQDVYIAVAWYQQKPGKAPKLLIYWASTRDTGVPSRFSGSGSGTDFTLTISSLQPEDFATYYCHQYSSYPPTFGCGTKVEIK
light: B1 light

inhibition of human VEGF165-induced proliferation of HMVEC-d (IC50) [3]: 19.2 nM | inhibition of human VEGF-induced cord formation in ADSC/ECFC co-culture (IC50) [3]: 6.04 nM | inhibition of human Ang2 induced phospho-Tie2 in CHO-Tie2 cells (IC50) [4]: 0.587 nM | Kd [1]: 0.721 nM | koff [1]: 1.8e-05 s⁻¹ | kon [1]: 25000 M⁻¹ s⁻¹ | Kd [5]: 0.1 nM | koff [5]: 7e-05 s⁻¹ | kon [5]: 820000 M⁻¹ s⁻¹ | Kd [6]: 0.23 nM | koff [6]: 8e-05 s⁻¹ | kon [6]: 360000 M⁻¹ s⁻¹ | Kd [7]: 0.24 nM | koff [7]: 9e-05 s⁻¹ | kon [7]: 360000 M⁻¹ s⁻¹ | Kd [8]: 0.42 nM | koff [8]: 0.00011 s⁻¹ | kon [8]: 270000 M⁻¹ s⁻¹ | Kd [9]: 0.3 nM | koff [9]: 0.00028 s⁻¹ | kon [9]: 960000 M⁻¹ s⁻¹ | IC50 [10]: 0.034 nM | Kd [11]: 37 nM | koff [11]: 0.0015 s⁻¹ | kon [11]: 41000 M⁻¹ s⁻¹ | Kd [12]: 6.1 nM | koff [12]: 0.00023 s⁻¹ | kon [12]: 38000 M⁻¹ s⁻¹ | Kd [13]: 3.3 nM | koff [13]: 0.00011 s⁻¹ | kon [13]: 34000 M⁻¹ s⁻¹ | Kd [14]: 4.6 nM | koff [14]: 0.00012 s⁻¹ | kon [14]: 25000 M⁻¹ s⁻¹ | Kd [2]: 0.673 nM | koff [2]: 0.000105 s⁻¹ | kon [2]: 156000 M⁻¹ s⁻¹
B3: Compound F (bispecific antibody, human IgG4 S228P, kappa, F234A L235A)
heavy: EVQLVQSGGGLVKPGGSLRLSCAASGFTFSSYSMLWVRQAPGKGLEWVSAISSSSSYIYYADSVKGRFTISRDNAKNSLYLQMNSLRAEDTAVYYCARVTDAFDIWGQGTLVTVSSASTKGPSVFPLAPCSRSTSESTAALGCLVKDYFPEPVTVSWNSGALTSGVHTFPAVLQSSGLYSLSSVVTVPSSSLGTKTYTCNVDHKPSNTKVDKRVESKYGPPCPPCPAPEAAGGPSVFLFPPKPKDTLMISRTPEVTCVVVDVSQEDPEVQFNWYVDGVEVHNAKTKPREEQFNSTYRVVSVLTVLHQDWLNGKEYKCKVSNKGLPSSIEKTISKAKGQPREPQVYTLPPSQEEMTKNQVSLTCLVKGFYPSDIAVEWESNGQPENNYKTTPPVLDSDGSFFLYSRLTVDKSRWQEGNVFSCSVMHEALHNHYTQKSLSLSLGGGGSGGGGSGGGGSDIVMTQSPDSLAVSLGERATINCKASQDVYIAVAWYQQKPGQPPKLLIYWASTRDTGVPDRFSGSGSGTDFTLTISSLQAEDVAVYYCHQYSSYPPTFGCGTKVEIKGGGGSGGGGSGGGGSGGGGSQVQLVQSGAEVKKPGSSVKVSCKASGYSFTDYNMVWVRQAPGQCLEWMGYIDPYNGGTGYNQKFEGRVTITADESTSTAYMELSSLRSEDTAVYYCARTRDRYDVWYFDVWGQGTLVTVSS
light: DIQMTQSPSSVSASVGDRVTITCRASRGIDNWLTWYQQKPGKAPKLLIYEASSLQSGVPSRFSGSGSGTDFTLTISSLQPEDFATYYCQQAKAFPPTFGGGTKVDIKRTVAAPSVFIFPPSDEQLKSGTASVVCLLNNFYPREAKVQWKVDNALQSGNSQESVTEQDSKDSTYSLSSTLTLSKADYEKHKVYACEVTHQGLSSPVTKSFNRGEC
notes: also called Cmpd F

Kd [1]: 1.11 nM | koff [1]: 3.5e-05 s⁻¹ | kon [1]: 32000 M⁻¹ s⁻¹ | Kd [2]: 0.407 nM | koff [2]: 9.7e-05 s⁻¹ | kon [2]: 239000 M⁻¹ s⁻¹
B4: Compound E (bispecific antibody, human IgG4 S228P, kappa, F234A L235A)
heavy: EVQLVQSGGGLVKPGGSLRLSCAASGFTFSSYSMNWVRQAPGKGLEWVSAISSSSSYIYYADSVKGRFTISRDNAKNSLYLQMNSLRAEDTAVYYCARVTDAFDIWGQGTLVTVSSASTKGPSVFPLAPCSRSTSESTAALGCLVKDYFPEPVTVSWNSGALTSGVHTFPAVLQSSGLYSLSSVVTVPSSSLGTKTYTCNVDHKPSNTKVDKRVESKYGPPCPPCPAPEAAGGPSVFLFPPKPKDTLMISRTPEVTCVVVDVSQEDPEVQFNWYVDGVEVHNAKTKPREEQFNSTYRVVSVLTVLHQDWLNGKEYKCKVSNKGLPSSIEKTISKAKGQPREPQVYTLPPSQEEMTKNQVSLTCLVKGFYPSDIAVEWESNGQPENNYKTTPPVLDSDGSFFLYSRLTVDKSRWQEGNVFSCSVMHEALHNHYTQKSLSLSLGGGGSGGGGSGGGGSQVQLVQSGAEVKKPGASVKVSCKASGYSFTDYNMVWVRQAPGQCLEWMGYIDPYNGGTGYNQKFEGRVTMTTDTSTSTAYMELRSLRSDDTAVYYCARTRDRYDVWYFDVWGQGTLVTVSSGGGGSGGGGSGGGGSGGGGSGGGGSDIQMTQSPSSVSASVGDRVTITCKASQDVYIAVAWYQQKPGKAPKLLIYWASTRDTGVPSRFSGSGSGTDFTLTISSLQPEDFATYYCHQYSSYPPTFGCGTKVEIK
light: B3 light with R27Q, Y49V

Kd [1]: 0.528 nM | koff [1]: 2e-05 s⁻¹ | kon [1]: 38000 M⁻¹ s⁻¹ | Kd [2]: 0.462 nM | koff [2]: 0.000105 s⁻¹ | kon [2]: 226000 M⁻¹ s⁻¹
B5: Compound C (bispecific antibody, human IgG4 S228P, kappa, F234A L235A)
heavy: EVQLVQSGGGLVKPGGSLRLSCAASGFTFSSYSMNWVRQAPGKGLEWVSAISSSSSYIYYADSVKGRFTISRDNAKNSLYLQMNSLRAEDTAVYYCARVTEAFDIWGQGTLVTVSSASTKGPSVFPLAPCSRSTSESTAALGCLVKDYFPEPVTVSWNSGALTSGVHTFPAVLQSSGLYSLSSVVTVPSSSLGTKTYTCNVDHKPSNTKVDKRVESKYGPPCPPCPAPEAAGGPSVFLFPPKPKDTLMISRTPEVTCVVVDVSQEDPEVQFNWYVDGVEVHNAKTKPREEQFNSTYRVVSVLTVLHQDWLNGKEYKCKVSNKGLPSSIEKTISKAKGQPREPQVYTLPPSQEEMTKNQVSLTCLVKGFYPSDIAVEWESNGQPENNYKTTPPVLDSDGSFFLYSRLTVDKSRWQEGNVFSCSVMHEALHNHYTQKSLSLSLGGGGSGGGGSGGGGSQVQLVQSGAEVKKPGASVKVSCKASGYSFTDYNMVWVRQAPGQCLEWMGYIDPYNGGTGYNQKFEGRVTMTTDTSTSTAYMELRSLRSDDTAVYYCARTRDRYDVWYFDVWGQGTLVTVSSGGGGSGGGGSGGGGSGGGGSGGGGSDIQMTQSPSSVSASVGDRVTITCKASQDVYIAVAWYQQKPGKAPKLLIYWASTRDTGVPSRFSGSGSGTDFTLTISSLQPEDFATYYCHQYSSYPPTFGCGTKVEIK
light: B3 light

Kd [1]: 0.86 nM | koff [1]: 2.9e-05 s⁻¹ | kon [1]: 34000 M⁻¹ s⁻¹ | Kd [2]: 0.489 nM | koff [2]: 8.6e-05 s⁻¹ | kon [2]: 175000 M⁻¹ s⁻¹
B6: Compound D (bispecific antibody, human IgG4 S228P, kappa, F234A L235A)
heavy: not shown
light: B3 light with R27Q, Y49V, A93R
